From patent US20240041989A1 (UNIVERSITY OF KENTUCKY RESEARCH FOUNDATION, published 2024)

Legend:
[1] = target: T1, Human FcRn, soluble single-chain fusion protein (B2M-(GGGGS)3-heavy chain without transmembrane domain-6xHis) (human, UniProt P61769 21-119; P55899 24-297); test: ELISA, FcRn coated on plate, pH 6.0
T1 construct: also called neonatal Fc receptor; hFcRn
Procedure: (§1) In vitro binding affinity assay. The binding affinity of the BChE fusion proteins corresponding to CocH3-Fc (SEQ ID NO: 9), CocH3-Fc(M6) (SEQ ID NO: 10), CocH3G-Fc(M3) (SEQ ID NO: 11), CocH3G-Fc(M4) (SEQ ID NO: 12), CocH3G-Fc(M6) (SEQ ID NO: 13), CocH5G-Fc(M3) (SEQ ID NO: 14), CocH5G-Fc(M4) (SEQ ID NO: 15), and CocH5G-Fc(M6) (SEQ ID NO: 16), BChE-Fc(M3) (SEQ ID NO: 17), BChE-Fc(M4) (SEQ ID NO: 18), and BChE-Fc(M6) (SEQ ID NO: 19) with FcRn was determined by using an enzyme-linked immunosorbent assay (ELISA). 400 ng of the 6×His-tagged FcRn in 100 μL 0.05 M PBS, pH 7.4, was immobilized in a 96-well flat-bottomed EIA plate (Corning) at 4° C. overnight (or 37° C. for 2 hours). At the same time, corresponding empty wells without FcRn coating were left as a negative control. The liquid was dumped from the plates and the rest was drained on a paper towel. Coated wells were blocked with blocking buffer (0.05 M PBS, pH 6.0, containing 1 mg/ml casein) (250 μL/well) at room temperature (RT) for 1 hour. After washing twice with washing buffer (0.05 M PBS, pH 6.0) (250 μL/well), 100 μL of BChE fusion protein diluted in blocking buffer, pH 6.0 was added to each well at a range of concentrations. The plate was then covered with an adhesive plastic and incubated, with continuous shaking, at RT for 1 hour. After washing three times with washing buffer, an enzyme horseradish peroxidase (HRP)-conjugated antibody (anti-human IgG-Fc Ab-HRP) (70 μL/well), diluted with blocking buffer at a ratio of 1:20,000, was added into each well and incubated at RT for 30 minutes on a shaker. The wells were then washed three times with washing buffer (250 μL/well) before 250 μL TMB substrate was added to the wells. The ELISA plate was kept in the dark until the desired color developed. The reaction was stopped with 100 μL of 0.5 M HCl. The absorbance (the developed blue color) was measured at 450 nm using a microplate reader. All measurements were performed in triplicate or quadruplicate.

[2] = target: T1, Human FcRn, soluble single-chain fusion …; test: ELISA, FcRn coated on plate, pH 6.0, anti-human IgG-Fc-HRP detection
Procedure: as §1, with “After washing three times with washing buffer, an enzyme horseradish peroxidase (HRP)-conjugated antibody (anti-human IgG-Fc Ab-HRP) (70 μL/well), diluted with blocking buffer at a ratio of 1:20,000, was added into each well and incubated at RT for 30 minutes on a shaker. The wells were then washed three times with washing buffer (250 μL/well) before 250 μL TMB substrate was added to the wells. The ELISA plate was kept in the dark until the desired color developed. The reaction was stopped with 100 μL of 0.5 M HCl.” left out, “All measurements were performed in triplicate or quadruplicate.” left out

[3] = target: T1, Human FcRn, soluble single-chain fusion …; test: ELISA, FcRn coated on plate, pH 6.0; reference CocH3-Fc
Procedure: as §1, with “After washing three times with washing buffer, an enzyme horseradish peroxidase (HRP)-conjugated antibody (anti-human IgG-Fc Ab-HRP) (70 μL/well), diluted with blocking buffer at a ratio of 1:20,000, was added into each well and incubated at RT for 30 minutes on a shaker. The wells were then washed three times with washing buffer (250 μL/well) before 250 μL TMB substrate was added to the wells. The ELISA plate was kept in the dark until the desired color developed. The reaction was stopped with 100 μL of 0.5 M HCl.” left out, “All measurements were performed in triplicate or quadruplicate.” left out

T1 sequence (P61769 other isoform, or with tags, fused parts or gaps limits assumed): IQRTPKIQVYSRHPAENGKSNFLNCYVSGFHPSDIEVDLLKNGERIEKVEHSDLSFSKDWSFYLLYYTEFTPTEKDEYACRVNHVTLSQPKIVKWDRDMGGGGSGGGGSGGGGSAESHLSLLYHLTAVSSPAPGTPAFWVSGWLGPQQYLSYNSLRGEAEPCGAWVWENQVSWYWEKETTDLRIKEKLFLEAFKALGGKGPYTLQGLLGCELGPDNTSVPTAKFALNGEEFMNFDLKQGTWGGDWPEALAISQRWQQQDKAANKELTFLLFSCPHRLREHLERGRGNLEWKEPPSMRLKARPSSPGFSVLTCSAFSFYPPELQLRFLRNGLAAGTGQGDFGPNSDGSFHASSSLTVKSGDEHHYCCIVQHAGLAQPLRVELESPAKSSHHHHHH

| Binder | Kd [1] [nM] | Kd [2] [nM] | fold improvement in binding affinity against CocH3-Fc [3] [fold] |
| --- | --- | --- | --- |
| BChE-Fc(M6) (Fc fusion, Wild-type BChE fused to Fc(M6)) EDDIIIATKNGKVRGMNLTVFGGTVTAFLGIPYAQPPLGRLRFKKPQSLTKWSDIWNATKYANSCCQNIDQSFPGFHGSEMWNPNTDLSEDCLYLNVWIPAPKPKNATVLIWIYGGGFQTGTSSLHVYDGKFLARVERVIVVSMNYRVGALGFLALPGNPEAPGNMGLFDQQLALQWVQKNIAAFGGNPKSVTLFGESAGAASVSLHLLSPGSHSLFTRAILQSGSFNAPWAVTSLYEARNRTLNLAKLTGCSRENETEIIKCLRNKDPQEILLNEAFVVPYGTPLSVNFGPTVDGDFLTDMPDILLELGQFKKTQILVGVNKDEGTAFLVYGAPGFSKDNNSIITRKEFQEGLKIFFPGVSEFGKESILFHYTDWVDDQRPENYREALGDVVGDYNFICPALEFTKKFSEWGNNAFFYYFEHRSSKLPWPEWMGVMHGYEIEFVFGLPLERRDNYTKAEEILSRSIVKRWANFAKYGNPNETQNNSTSWPVFKSTEQKYLTLNTESTRIMTKLRAQQCRFWTSFFPKVVEPKSCDKTHTCPPCPAPELLGGPSVFLFPPKPKDTLYITREPEVTCVVVDVSHEDPEVKFNWYVDGVEVHNAKTKPREEQYNSTYRVVSVLTVLHQDWLNGKEYKCKVSNKALPAPIEKTISKAKGQPREPQVYTLPPSREEMTKNQVSLTCLVKGFYPSDIAVEWESNGQPENNYKTTPPVLDSDGSFFLYSKLTVDKSRWQQGNVFSCSVMHEALHNHYTQKSLSLSPGK | 40 |  |  |
| CocH5G-Fc(M6) (Fc fusion) EDDIIIATKNGKVRGMNLTVFGGTVTAFLGIPYAQPPLGRLRFKKPQSLTKWSDIWNATKYANSCCQNIDQSFPGFHGSEMWNPNTDLSEDCLYLNVWIPAPKPKNATVLIWIYGGGFQTGTSSLHVYDGKFLARVERVIVVSMNYRVGALGFLALPGNPEAPGNMGLFDQQLALQWVQKNIAAFGGNPKSVTLFGESSGAASVSLHLLSPGSHSLFTRAILQSGSANAPWAVTSLYEARNRTLNLAKLTGCSRENETEIIKCLRNKDPQEILLNEAFVVPYGTALGVNFGPTVDGDFLTDMPDILLELGQFKKTQILVGVNKDEGTWFLVGGAPGFSKDNNSIITRKEFQEGLKIFFPGVSEFGKESILFHYTDWVDDQRPENYREALGDVVGDYNFICPALEFTKKFSEWGNNAFFYYFEHRSSKLPWPEWMGVMHGYEIEFVFGLPLERRDNYTKAEEILSRSIVKRWANFAKYGNPNETQNNSTSWPVFKSTEQKYLTLNTESTRIMTKLRAQQCRFWGSFFPKVVEPKSCDKTHTCPPCPAPELLGGPSVFLFPPKPKDTLYITREPEVTCVVVDVSHEDPEVKFNWYVDGVEVHNAKTKPREEQYNSTYRVVSVLTVLHQDWLNGKEYKCKVSNKALPAPIEKTISKAKGQPREPQVYTLPPSREEMTKNQVSLTCLVKGFYPSDIAVEWESNGQPENNYKTTPPVLDSDGSFFLYSKLTVDKSRWQQGNVFSCSVMHEALHNHYTQKSLSLSPGK | 40 |  |  |
| CocH3G-Fc(M6) (Fc fusion) EDDIIIATKNGKVRGMNLTVFGGTVTAFLGIPYAQPPLGRLRFKKPQSLTKWSDIWNATKYANSCCQNIDQSFPGFHGSEMWNPNTDLSEDCLYLNVWIPAPKPKNATVLIWIYGGGFQTGTSSLHVYDGKFLARVERVIVVSMNYRVGALGFLALPGNPEAPGNMGLFDQQLALQWVQKNIAAFGGNPKSVTLFGESSGAASVSLHLLSPGSHSLFTRAILQSGSANAPWAVTSLYEARNRTLNLAKLTGCSRENETEIIKCLRNKDPQEILLNEAFVVPYGTPLGVNFGPTVDGDFLTDMPDILLELGQFKKTQILVGVNKDEGTWFLVGGAPGFSKDNNSIITRKEFQEGLKIFFPGVSEFGKESILFHYTDWVDDQRPENYREALGDVVGDYNFICPALEFTKKFSEWGNNAFFYYFEHRSSKLPWPEWMGVMHGYEIEFVFGLPLERRDNYTKAEEILSRSIVKRWANFAKYGNPNETQNNSTSWPVFKSTEQKYLTLNTESTRIMTKLRAQQCRFWGSFFPKVVEPKSCDKTHTCPPCPAPELLGGPSVFLFPPKPKDTLYITREPEVTCVVVDVSHEDPEVKFNWYVDGVEVHNAKTKPREEQYNSTYRVVSVLTVLHQDWLNGKEYKCKVSNKALPAPIEKTISKAKGQPREPQVYTLPPSREEMTKNQVSLTCLVKGFYPSDIAVEWESNGQPENNYKTTPPVLDSDGSFFLYSKLTVDKSRWQQGNVFSCSVMHEALHNHYTQKSLSLSPGK | 40 |  |  |
| CocH3-Fc(M6) (Fc fusion, Expressed in CHO-S cells and purified on protein A; also called A530V/M567Y/S569T/T571E/D671E/L673M mutant of CocH3-Fc) EDDIIIATKNGKVRGMNLTVFGGTVTAFLGIPYAQPPLGRLRFKKPQSLTKWSDIWNATKYANSCCQNIDQSFPGFHGSEMWNPNTDLSEDCLYLNVWIPAPKPKNATVLIWIYGGGFQTGTSSLHVYDGKFLARVERVIVVSMNYRVGALGFLALPGNPEAPGNMGLFDQQLALQWVQKNIAAFGGNPKSVTLFGESSGAASVSLHLLSPGSHSLFTRAILQSGSANAPWAVTSLYEARNRTLNLAKLTGCSRENETEIIKCLRNKDPQEILLNEAFVVPYGTPLGVNFGPTVDGDFLTDMPDILLELGQFKKTQILVGVNKDEGTWFLVGGAPGFSKDNNSIITRKEFQEGLKIFFPGVSEFGKESILFHYTDWVDDQRPENYREALGDVVGDYNFICPALEFTKKFSEWGNNAFFYYFEHRSSKLPWPEWMGVMHGYEIEFVFGLPLERRDNYTKAEEILSRSIVKRWANFAKYGNPNETQNNSTSWPVFKSTEQKYLTLNTESTRIMTKLRAQQCRFWTSFFPKVVEPKSCDKTHTCPPCPAPELLGGPSVFLFPPKPKDTLYITREPEVTCVVVDVSHEDPEVKFNWYVDGVEVHNAKTKPREEQYNSTYRVVSVLTVLHQDWLNGKEYKCKVSNKALPAPIEKTISKAKGQPREPQVYTLPPSREEMTKNQVSLTCLVKGFYPSDIAVEWESNGQPENNYKTTPPVLDSDGSFFLYSKLTVDKSRWQQGNVFSCSVMHEALHNHYTQKSLSLSPGK | 43 | 43 | ~100 |
